{"source": "paper PMC12041258", "key": {"[1]": {"molecular_target": "C. crescentus DriD DNABD, DriD(1-70) (C. crescentus)", "assay": "MST"}, "[2]": {"molecular_target": "C. crescentus DriD(78-327) (C. crescentus)", "assay": "SEC"}, "[3]": {"molecular_target": "C. crescentus DriD(78-327) (C. crescentus)", "assay": "SEC", "remark": "listed apart in the source"}}, "note": "pKd: −log10 of the molar value. Where two headings read alike, the source gives them in different places.", "data": [{"substance": "His-tag free C. crescentus DriD(78-327) (domain or fragment)", "values": [{"measurement": "pKd", "setting": "[1]", "value": 4.82}]}, {"substance": "C. crescentus DriD(78-327) (domain or fragment)", "values": [{"measurement": "stoichiometry N", "setting": "[2]", "value": 2}, {"measurement": "stoichiometry N", "setting": "[3]", "value": 2}]}]}
